Source: paper doi:10.1101/2020.11.15.382044

Legend:
[1] = molecular target: SARS-CoV-2 D614G mutant S trimer (design Spike_ΔCter_ΔFurin_2P_T4_His with D614G) (SARS-CoV-2 | bacteriophage T4) (UniProt P0DTC2); assay: negative-stain electron microscopy
[2] = molecular target: SARS-CoV-2 Spike trimer (Wuhan), design Spike_ΔCter_ΔFurin_2P_T4_His (SARS-CoV-2 | bacteriophage T4) (UniProt P0DTC2); assay: SEC
[3] = molecular target: SARS-CoV-2 Spike trimer (Wuhan), design Spike_ΔCter_ΔFurin_2P_T4_His (SARS-CoV-2 | bacteriophage T4) (UniProt P0DTC2); assay: negative-stain electron microscopy

Row | Substance | stoichiometry N [1] | stoichiometry N [2] | stoichiometry N [3]
1 | SARS-CoV-2 D614G mutant S trimer (design Spike_ΔCter_ΔFurin_2P_T4_His with D614G) (from UniProt P0DTC2 14-1213) (complex) | 3 | – | –
2 | SARS-CoV-2 Spike trimer (Wuhan), design Spike_ΔCter_ΔFurin_2P_T4_His (from UniProt P0DTC2 14-1213) (complex) | – | 3 | 3
